Ten sequences from US20170166895 can be followed below.

For data set [1], the target named is T1, Complement component 3 (C3) (Homo sapiens) (UniProt P01024+P01024). The experiment in a line: inhibition. As to conditions: P = NapdU (all U), 3'-3' idT, hemolysis, 20 nM C3, GVB++, 37 C.
The target of data set [2] is T1, Complement component 3 (C3) (Homo sapiens). The experiment in a line: filter. As to conditions: 3'-3' idT, SB18T0.01, 37C.
The mark [3] stands for this setting: all P = NapdU, U1 = 2'-OMe-U, 2'-OMe at 1,2,3,5,7,9,10,13,19,20,22-28, C3-spacer replaces C17.

T1 sequence (P01024 23-667, chain 1 of 2): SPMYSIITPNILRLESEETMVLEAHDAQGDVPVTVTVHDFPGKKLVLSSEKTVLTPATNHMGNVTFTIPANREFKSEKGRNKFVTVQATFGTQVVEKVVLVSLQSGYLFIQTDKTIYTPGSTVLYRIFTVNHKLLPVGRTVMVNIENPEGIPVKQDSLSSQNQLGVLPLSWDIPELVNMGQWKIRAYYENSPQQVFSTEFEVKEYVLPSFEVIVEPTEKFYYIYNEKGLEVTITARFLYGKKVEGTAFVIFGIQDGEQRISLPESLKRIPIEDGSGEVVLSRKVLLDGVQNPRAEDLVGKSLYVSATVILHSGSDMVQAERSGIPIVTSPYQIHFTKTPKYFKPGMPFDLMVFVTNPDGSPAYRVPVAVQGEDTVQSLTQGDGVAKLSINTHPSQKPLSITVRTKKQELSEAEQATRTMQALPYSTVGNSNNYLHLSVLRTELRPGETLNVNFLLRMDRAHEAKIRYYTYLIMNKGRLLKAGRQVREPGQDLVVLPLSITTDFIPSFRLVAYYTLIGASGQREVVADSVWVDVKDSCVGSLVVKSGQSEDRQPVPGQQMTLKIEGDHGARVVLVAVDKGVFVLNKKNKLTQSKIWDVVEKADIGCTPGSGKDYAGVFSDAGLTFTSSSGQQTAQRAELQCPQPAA
T1 sequence (P01024 672-1663, chain 2 of 2): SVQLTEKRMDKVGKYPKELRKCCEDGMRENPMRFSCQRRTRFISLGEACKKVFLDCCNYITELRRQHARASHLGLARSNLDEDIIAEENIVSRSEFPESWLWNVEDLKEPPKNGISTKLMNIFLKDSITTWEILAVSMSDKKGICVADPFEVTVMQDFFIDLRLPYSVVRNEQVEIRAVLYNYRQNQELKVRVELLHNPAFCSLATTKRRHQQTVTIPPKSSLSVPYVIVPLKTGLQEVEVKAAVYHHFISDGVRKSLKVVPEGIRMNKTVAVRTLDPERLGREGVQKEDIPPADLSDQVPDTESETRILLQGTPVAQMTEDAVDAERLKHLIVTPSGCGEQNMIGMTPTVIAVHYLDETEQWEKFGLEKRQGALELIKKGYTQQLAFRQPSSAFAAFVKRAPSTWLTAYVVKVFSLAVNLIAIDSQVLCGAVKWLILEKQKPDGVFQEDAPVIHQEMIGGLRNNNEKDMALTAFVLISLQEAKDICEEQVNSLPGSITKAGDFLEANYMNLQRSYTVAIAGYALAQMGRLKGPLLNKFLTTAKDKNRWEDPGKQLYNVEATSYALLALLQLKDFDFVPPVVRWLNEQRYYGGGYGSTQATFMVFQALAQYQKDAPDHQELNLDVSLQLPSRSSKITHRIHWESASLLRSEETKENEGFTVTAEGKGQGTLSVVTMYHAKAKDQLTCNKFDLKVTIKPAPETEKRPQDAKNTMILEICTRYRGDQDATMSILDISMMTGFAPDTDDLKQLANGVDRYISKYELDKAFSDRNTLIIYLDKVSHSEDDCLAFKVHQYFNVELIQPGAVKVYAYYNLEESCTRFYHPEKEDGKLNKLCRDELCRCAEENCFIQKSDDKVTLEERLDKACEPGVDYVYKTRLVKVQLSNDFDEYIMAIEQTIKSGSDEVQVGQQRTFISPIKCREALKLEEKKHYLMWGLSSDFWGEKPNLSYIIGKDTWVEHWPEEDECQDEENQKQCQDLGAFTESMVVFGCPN

Turning to “CCGGUGACUCAAUAGUCCGUACGUUCCCG [8491-94_27]”, the half-maximal inhibitory concentration (IC50) in data set [1] is 24.6 nM. Besides, the Kd in data set [2] (all U = NapdU) is 0.0658 nM. In turn, “CCGGUGACUCAAUAGUCCGUACGUUCCCGG [8491-94_26]” had an IC50 in data set [1] of 15.1 nM. This sequence showed a Kd in data set [2] (all U = NapdU) of 0.0511 nM. “CGGUGACUCAAUAGUCCGUACGUUCCCG [8491-94_53]” yielded a half-maximal inhibitory concentration (IC50) in data set [1] of 17.1 nM. The sequence also came in with a Kd in data set [2] (all U = NapdU) of 0.0334 nM.

In data set [1] (2'-OMe at 1,2,3,5,7,10,13,26,27,28), “CGGUGACUCAAUAGUCCGUACGUUCCCG [8491-94_90]” gave an IC50 of 18.9 nM. Besides, the Kd in data set [2] (all U = NapdU, 2'-OMe at 1,2,3,5,7,10,13,26,27,28) turned out to be 0.00424 nM. Regarding “CGGUGACUCAAUAGUCCGUACGUUCCCG [8491-94_97]”, in data set [1] (2'-OMe at 1,2,3,5,7,9,10,13,19,20,22,23,24,25,26,27,28, C3a release in 34% serum IC50 3 uM), the concentration for half-maximal inhibition (IC50) was determined as 15.6 nM. For the same sequence, the Kd in data set [2] (all U = NapdU, 2'-OMe at 1,2,3,5,7,9,10,13,19,20,22-28) amounted to 0.0549 nM.

In turn, “TGGUGACUCAAUAGUCGUATGUUCCCA [8491-94_131]” had an equilibrium dissociation constant (Kd) in data set [2] (all P = NapdU, T = dT, 2'-OMe at 2,3,5,7,9,10,13,19,20,22-28, C3-spacer replaces C17) of 5.64 nM.

“UGACUCAAUAGUCCGUACGUUCCCGGUCCGAACGCGGAGGA [8491-94_10]” yielded an equilibrium dissociation constant (Kd) in data set [2] (all U = NapdU) of 7.6 nM. For “UGGUGACUCAAUAGUCCGUACAUUCCCA [8491-94_139]”, in data set [2] (all P = NapdU, U1 = 2'-OMe-U, 2'-OMe at 1,2,3,5,7,9,10,13,19,20,22-28), the Kd amounted to 26.7 nM.

The sequence “UGGUGACUCAAUAGUCGUACAUUCCCA [8491-94_138]” yielded a dissociation constant (Kd) in data set [2] (setting [3]) of 18.2 nM. Sequence “UGGUGACUCAAUAGUCGUACGUUCCCA [8491-94_137]” had a Kd in data set [2] (setting [3]) of 0.119 nM. This Kd is about 150-fold lower than that of the sequence before.

By IC50 is commonly meant the point on the concentration scale where inhibition reaches its midpoint. A lower IC50 goes with inhibition by little substance. By Kd is commonly meant a measure of binding affinity in units of concentration. Read a low Kd as a tighter complex.
